The target in assay [1] is T1, Murine OPG-Fc (mouse, UniProt O08712 22-401).
T1 sequence (looked up): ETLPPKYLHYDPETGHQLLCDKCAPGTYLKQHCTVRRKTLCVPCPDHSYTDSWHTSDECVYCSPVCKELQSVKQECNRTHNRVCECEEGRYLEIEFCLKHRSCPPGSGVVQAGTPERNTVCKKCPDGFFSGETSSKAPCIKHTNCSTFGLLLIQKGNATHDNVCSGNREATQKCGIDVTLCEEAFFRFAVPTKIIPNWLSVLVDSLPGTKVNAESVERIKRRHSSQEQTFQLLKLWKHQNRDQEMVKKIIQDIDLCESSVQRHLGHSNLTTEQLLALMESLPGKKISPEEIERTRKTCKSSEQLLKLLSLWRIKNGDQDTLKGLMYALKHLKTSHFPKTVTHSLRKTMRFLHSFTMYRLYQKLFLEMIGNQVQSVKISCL
The assay is described as follows: SPR. A general note: Surface plasmon resonance follows binding to a sensor surface in real time, without labels.

A further assay has as its target T2, Murine RANK-Fc (mouse, UniProt O35305 31-214).
T2 sequence (looked up): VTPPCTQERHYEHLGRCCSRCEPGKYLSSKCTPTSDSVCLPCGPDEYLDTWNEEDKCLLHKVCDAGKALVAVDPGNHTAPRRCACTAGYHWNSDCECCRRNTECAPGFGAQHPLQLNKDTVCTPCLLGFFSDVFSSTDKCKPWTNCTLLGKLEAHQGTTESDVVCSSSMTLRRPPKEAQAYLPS
The assay is described as follows: SPR.

Assay [2] concerns the target T1, Murine OPG-Fc. The assay is described as follows: ELISA. In general terms: ELISA stands for enzyme-linked immunosorbent assay.

B1: RANKL_WT (mouse soluble RANKL, aa 160–316) (ligand, UniProt O35235 160-316, looked up)
chain: EAQPFAHLTINAASIPSGSHKVTLSSWYHDRGWAKISNMTLSNGKLRVNQDGFYYLYANICFRHHETSGSVPTDYLQLMVYVVKTSIKIPSSHNLMKGGSTKNWSGNSEFHFYSINVGGFFKLRAGEEISIQVSNPSLLDPDQDATYFGAFKVQDID
The Kd is the constant that tells how readily two partners part at equilibrium. A low value points to tighter binding. A word on the koff: it is the first-order rate constant of dissociation. Read a low koff as slow dissociation. For orientation: kon means the rate constant with which the complex forms. As to B1, in the assay with Murine OPG-Fc [1], binding was characterised by a dissociation constant (Kd) of 0.0043 ± 0.0016 nM, the koff stood at 7e-05 s⁻¹ and the kon amounted to 1.8e+07 M⁻¹ s⁻¹. In the assay with Murine RANK-Fc, this molecule gave a Kd of 0.0119 ± 0.0015 nM, a koff of 0.0001 s⁻¹ and a kon of 8.4e+06 M⁻¹ s⁻¹.

B2: RANKL_Q236P (ligand, mouse, UniProt O35235 160-316, looked up)
chain: EAQPFAHLTINAASIPSGSHKVTLSSWYHDRGWAKISNMTLSNGKLRVNQDGFYYLYANICFRHHETSGSVPTDYLPLMVYVVKTSIKIPSSHNLMKGGSTKNWSGNSEFHFYSINVGGFFKLRAGEEISIQVSNPSLLDPDQDATYFGAFKVQDID
With B2, in the assay with Murine OPG-Fc [1], binding was characterised by a dissociation constant (Kd) of 0.0213 ± 0.0082 nM, the koff is 0.00022 s⁻¹ and the kon is 1.1e+07 M⁻¹ s⁻¹. In the assay with Murine RANK-Fc, this molecule showed a Kd of 0.0198 ± 0.006 nM, a koff of 0.00012 s⁻¹ and a kon of 6.1e+06 M⁻¹ s⁻¹.

B3: RANKL_Q236H (ligand, mouse, UniProt O35235 160-316, looked up)
chain: EAQPFAHLTINAASIPSGSHKVTLSSWYHDRGWAKISNMTLSNGKLRVNQDGFYYLYANICFRHHETSGSVPTDYLHLMVYVVKTSIKIPSSHNLMKGGSTKNWSGNSEFHFYSINVGGFFKLRAGEEISIQVSNPSLLDPDQDATYFGAFKVQDID
Take B3: in the assay with Murine OPG-Fc [1], the Kd was 0.0166 ± 0.0016 nM, the koff is 0.00022 s⁻¹ and the kon was 1.3e+07 M⁻¹ s⁻¹. In the assay with Murine RANK-Fc, this molecule returned a dissociation constant (Kd) of 0.0187 ± 0.0028 nM, a koff of 0.00013 s⁻¹ and a kon of 6.7e+06 M⁻¹ s⁻¹.

B4: RANKL_Q236S (ligand, mouse, UniProt O35235 160-316, looked up)
chain: EAQPFAHLTINAASIPSGSHKVTLSSWYHDRGWAKISNMTLSNGKLRVNQDGFYYLYANICFRHHETSGSVPTDYLSLMVYVVKTSIKIPSSHNLMKGGSTKNWSGNSEFHFYSINVGGFFKLRAGEEISIQVSNPSLLDPDQDATYFGAFKVQDID
For B4, in the assay with Murine OPG-Fc [1], the Kd turned out to be 0.0233 ± 0.0045 nM, the koff turned out to be 0.00031 s⁻¹ and the kon amounted to 1.4e+07 M⁻¹ s⁻¹. In the assay with Murine RANK-Fc, this molecule came in with a Kd of 0.0249 ± 0.0051 nM, a koff of 0.00018 s⁻¹ and a kon of 7e+06 M⁻¹ s⁻¹.

B5: RANKL_Q236N (ligand, mouse, UniProt O35235 160-316, looked up)
chain: EAQPFAHLTINAASIPSGSHKVTLSSWYHDRGWAKISNMTLSNGKLRVNQDGFYYLYANICFRHHETSGSVPTDYLNLMVYVVKTSIKIPSSHNLMKGGSTKNWSGNSEFHFYSINVGGFFKLRAGEEISIQVSNPSLLDPDQDATYFGAFKVQDID
Turning to B5, in the assay with Murine OPG-Fc [1], the affinity, expressed as Kd, was 0.0207 ± 0.0037 nM; the koff was determined as 0.00031 s⁻¹; the kon was found to be 1.5e+07 M⁻¹ s⁻¹. Further, in the assay with Murine RANK-Fc, the Kd was 0.0221 ± 0.0029 nM, the koff worked out at 0.00017 s⁻¹ and the kon came to 7.9e+06 M⁻¹ s⁻¹.

B6: RANKL_Q236A (ligand, mouse, UniProt O35235 160-316, looked up)
chain: EAQPFAHLTINAASIPSGSHKVTLSSWYHDRGWAKISNMTLSNGKLRVNQDGFYYLYANICFRHHETSGSVPTDYLALMVYVVKTSIKIPSSHNLMKGGSTKNWSGNSEFHFYSINVGGFFKLRAGEEISIQVSNPSLLDPDQDATYFGAFKVQDID
For the molecule B6, in the assay with Murine OPG-Fc [1], the equilibrium dissociation constant (Kd) was 0.0205 ± 0.0022 nM, the koff worked out at 0.00033 s⁻¹ and the kon came to 1.6e+07 M⁻¹ s⁻¹. In the assay with Murine RANK-Fc, this molecule returned a Kd of 0.0215 ± 0.0066 nM, a koff of 0.00018 s⁻¹ and a kon of 8.9e+06 M⁻¹ s⁻¹.

B7: RANKL_Q236D (ligand, mouse, UniProt O35235 160-316, looked up)
chain: EAQPFAHLTINAASIPSGSHKVTLSSWYHDRGWAKISNMTLSNGKLRVNQDGFYYLYANICFRHHETSGSVPTDYLDLMVYVVKTSIKIPSSHNLMKGGSTKNWSGNSEFHFYSINVGGFFKLRAGEEISIQVSNPSLLDPDQDATYFGAFKVQDID
In the assay with Murine OPG-Fc [1], B7 displayed a Kd of 0.112 ± 0.0244 nM, a dissociation rate constant (koff) of 0.0007 s⁻¹ and a kon of 6e+06 M⁻¹ s⁻¹. Also, in the assay with Murine RANK-Fc, the Kd was determined as 0.015 ± 0.0032 nM, the koff came to 9e-05 s⁻¹ and the kon turned out to be 6.4e+06 M⁻¹ s⁻¹. In the assay with Murine OPG-Fc [2], the “binding relative to RANKL_WT” value was 25%.

B8: RANKL_Q236K (ligand, mouse, UniProt O35235 160-316, looked up)
chain: EAQPFAHLTINAASIPSGSHKVTLSSWYHDRGWAKISNMTLSNGKLRVNQDGFYYLYANICFRHHETSGSVPTDYLKLMVYVVKTSIKIPSSHNLMKGGSTKNWSGNSEFHFYSINVGGFFKLRAGEEISIQVSNPSLLDPDQDATYFGAFKVQDID
Consider B8, for which, in the assay with Murine OPG-Fc [1], binding was characterised by a dissociation constant (Kd) of 0.143 ± 0.0446 nM, the koff was 0.00146 s⁻¹ and the kon worked out at 1.1e+07 M⁻¹ s⁻¹. In the assay with Murine RANK-Fc, this molecule showed a Kd of 0.119 ± 0.0105 nM, a koff of 0.00095 s⁻¹ and a kon of 8e+06 M⁻¹ s⁻¹.
